Measured values: PMC4786117, “Human PIEZO1 Ion Channel Functions as a Split Protein” (PLoS ONE, 2016)

Target: T1, hPIEZO1 C-terminal segment (residues 1592-2521) with N-terminal GFP (human, UniProt Q92508 1592-2521)
T1 construct: PIEZO1, human, residues 1592-2521, second cistron (after the IRES element) of the bicistronic vector hPIEZO1 NtCt; the methods say amplified from amino acid 1591 to the end, the results print 1592 to 2251 and 1591-2251; C-terminus amplified from HekP1; inserted at a SpeI site after the GFP of pIRES2-EGFP, so GFP precedes the segment; also called Ct-EGFP; C-terminal fragment; source: HEK293, …
T1 sequence (looked up): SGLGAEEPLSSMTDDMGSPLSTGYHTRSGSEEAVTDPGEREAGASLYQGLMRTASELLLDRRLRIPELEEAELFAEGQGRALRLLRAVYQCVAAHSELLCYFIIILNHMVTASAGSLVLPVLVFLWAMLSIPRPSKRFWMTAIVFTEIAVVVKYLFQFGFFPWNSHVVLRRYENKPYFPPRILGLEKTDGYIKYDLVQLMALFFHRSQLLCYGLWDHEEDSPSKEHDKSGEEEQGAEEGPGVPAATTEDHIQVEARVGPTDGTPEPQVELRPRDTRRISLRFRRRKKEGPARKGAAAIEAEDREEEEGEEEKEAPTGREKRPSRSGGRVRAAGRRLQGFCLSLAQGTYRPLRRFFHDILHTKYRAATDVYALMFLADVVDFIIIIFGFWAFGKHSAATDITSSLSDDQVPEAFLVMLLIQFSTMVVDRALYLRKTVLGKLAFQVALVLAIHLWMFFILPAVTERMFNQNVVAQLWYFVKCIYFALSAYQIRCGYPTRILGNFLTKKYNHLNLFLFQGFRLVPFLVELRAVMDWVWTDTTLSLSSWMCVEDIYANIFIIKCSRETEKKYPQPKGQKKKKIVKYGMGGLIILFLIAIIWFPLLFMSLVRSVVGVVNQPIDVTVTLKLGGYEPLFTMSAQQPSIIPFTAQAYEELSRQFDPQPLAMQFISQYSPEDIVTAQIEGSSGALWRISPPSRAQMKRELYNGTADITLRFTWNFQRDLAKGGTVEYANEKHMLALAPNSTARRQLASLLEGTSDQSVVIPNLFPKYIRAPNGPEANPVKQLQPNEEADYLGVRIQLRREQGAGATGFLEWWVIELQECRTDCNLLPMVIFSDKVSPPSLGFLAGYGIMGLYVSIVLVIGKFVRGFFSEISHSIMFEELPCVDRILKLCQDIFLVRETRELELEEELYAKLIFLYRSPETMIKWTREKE
Experiment: FRET or BRET; living HEK293 cells transfected with bicistronic vectors; EGFP and mCherry fusions; FRET ratio = 680 nm emission excited at 480 nm over 680 nm emission excited at 560 nm
Details: partners not purified

B1: hPIEZO1 N-terminal segment (residues 1-1591) with mCherry linked at its end (domain or fragment, human, UniProt Q92508 1-1591, looked up)
chain: MEPHVLGAVLYWLLLPCALLAACLLRFSGLSLVYLLFLLLLPWFPGPTRCGLQGHTGRLLRALLGLSLLFLVAHLALQICLHIVPRLDQLLGPSCSRWETLSRHIGVTRLDLKDIPNAIRLVAPDLGILVVSSVCLGICGRLARNTRQSPHPRELDDDERDVDASPTAGLQEAATLAPTRRSRLAARFRVTAHWLLVAAGRVLAVTLLALAGIAHPSALSSVYLLLFLALCTWWACHFPISTRGFSRLCVAVGCFGAGHLICLYCYQMPLAQALLPPAGIWARVLGLKDFVGPTNCSSPHALVLNTGLDWPVYASPGVLLLLCYATASLRKLRAYRPSGQRKEAAKGYEARELELAELDQWPQERESDQHVVPTAPDTEADNCIVHELTGQSSVLRRPVRPKRAEPREASPLHSLGHLIMDQSYVCALIAMMVWSITYHSWLTFVLLLWACLIWTVRSRHQLAMLCSPCILLYGMTLCCLRYVWAMDLRPELPTTLGPVSLRQLGLEHTRYPCLDLGAMLLYTLTFWLLLRQFVKEKLLKWAESPAALTEVTVADTEPTRTQTLLQSLGELVKGVYAKYWIYVCAGMFIVVSFAGRLVVYKIVYMFLFLLCLTLFQVYYSLWRKLLKAFWWLVVAYTMLVLIAVYTFQFQDFPAYWRNLTGFTDEQLGDLGLEQFSVSELFSSILVPGFFLLACILQLHYFHRPFMQLTDMEHVSLPGTRLPRWAHRQDAVSGTPLLREEQQEHQQQQQEEEEEEEDSRDEGLGVATPHQATQVPEGAAKWGLVAERLLELAAGFSDVLSRVQVFLRRLLELHVFKLVALYTVWVALKEVSVMNLLLVVLWAFALPYPRFRPMASCLSTVWTCVIIVCKMLYQLKVVNPQEYSSNCTEPFPNSTNLLPTEISQSLLYRGPVDPANWFGVRKGFPNLGYIQNHLQVLLLLVFEAIVYRRQEHYRRQHQLAPLPAQAVFASGTRQQLDQDLLGCLKYFINFFFYKFGLEICFLMAVNVIGQRMNFLVTLHGCWLVAILTRRHRQAIARLWPNYCLFLALFLLYQYLLCLGMPPALCIDYPWRWSRAVPMNSALIKWLYLPDFFRAPNSTNLISDFLLLLCASQQWQVFSAERTEEWQRMAGVNTDRLEPLRGEPNPVPNFIHCRSYLDMLKVAVFRYLFWLVLVVVFVTGATRISIFGLGYLLACFYLLLFGTALLQRDTRARLVLWDCLILYNVTVIISKNMLSLLACVFVEQMQTGFCWVIQLFSLVCTVKGYYDPKEMMDRDQDCLLPVEEAGIIWDSVCFFFLLLQRRVFLSHYYLHVRADLQATALLASRGFALYNAANLKSIDFHRRIEEKSLAQLKRQMERIRAKQEKHRQGRVDRSRPQDTLGPKDPGLEPGPDSPGGSSPPRRQWWRPWLDHATVIHSGDYFLFESDSEEEEEAVPEDPRPSAQSAFQLAYQAWVTNAQAVLRRRQQEQEQARQEQAGQLPTGGGPSQEVEPAEGPEEAAAGRSHVVQRVLSTAQFLWMLGQALVDELTRWLQEFTRHHGTMSDVLRAERYLLTQELLQGGEVHRGVLDQLYTSQAEATLPGPTEAPNAPSTVS
notes: PIEZO1, human, residues 1-1591, first cistron of the bicistronic vector hPIEZO1 NtCt; also called Nt-mCherry; N-terminal fragment; source: HEK293, transfected with the bicistronic plasmid hPIEZO1 NtCt, in living cells; not shown: mCherry, C-terminal, kept
FRET ratio: 3.4
